Laboratory results taken from patent publication US20220195015A1 (published 2022).

Target: SARS-CoV-2 spike protein receptor binding domain (RBD) (SARS-CoV-2, UniProt P0DTC2 319-539)
Assay: ELISA on coated RBD protein

Row | Binder | EC50 [ng/mL]
1 | C050 (antibody, V domains shown) VH: EVQLVESGGGLFQPGGSLRLSCAASGFSVRNNYVSWVRQAPGKGLEWVSVIYSGGTTYYADSVKGRFTISRDISENTLYLQMNSLRAEDTAVYYCAREGDVEGLHDFWSGYSRDRYYFDYWGQGTLVTVSS VL: QSALTQPASVSGSPGQSIIISCTGTSGDIGGYNYVSWYQQHPGKAPKLMIYDVSFRPSGVSNRFSGSKSDNTASLTISGLQAEDEADYYCSSFTGNNTRVFGTGTKVTVL | 1.93
2 | C051 (antibody, V domains shown) VH: EVQLVESGGGLIQAGGSLRLSCAASGFGVRNNYMSWVRQAPGKGLEWVSVIYSGGTTYYADSVKGRFTISRDNSKNTVFLQMNSLRAEDTAVYYCAREGDVEGFSDLWSGYSRDRYYFDYWGQGTLVTVSS VL: QSALTQPASVSGSPGQSITFSCTGTSSDVGGYNYVSWYQQYPGKAPKLLIYDVTNRPSGVSDRFSGSKSGNTASLTISGLQAEDEADYYCSSFTSSNTRVFGTGTKVTVL | 1.65
3 | C052 (antibody, V domains shown) VH: EVQLVESGGGLIRPGGSLRLSCAASGFSVSNNYMSWVRQAPGKGLEWVSVIYSGGTTYYADSVKGRFNISRDNSKNTVYLQMNSLRAEDTAVYYCAREGDVEGYYDFWSGYSRDRYYFDYWGQGALVTVSS VL: QSALTQPASVSGSPGQSITISCTGTSSDVGGYNYVSWYQQHPGKAPKLMIYDVSNRPSGVSNRFSGSKSGNTASLTISGLQAEDEADYYCNSYTSNNTRVFGTGTKVTVL | 1.23
4 | C054 (antibody, V domains shown) VH: EVQLVESGGGLIQPGGSLRLSCAASGFTVSNNYMSWVRQAPGKGLEWVSVIYSGGSTYDADSVKGRFTISRDNSKNTLYLQMNSLSAEDTAVYYCAREGDVEGYYDFWSGYSRDRYYFDYWGQGTLVTVSS VL: QSALTQPASVSGSPGQSITISCTGTSSDVGGYNYVSWYQQHPGKAPKLMIYDVSNRPSGVSNRFSGSKSGNTASLTISGLQAEDEADYYCSSYTSSSARVFGTGTKVTVL | 1.58
5 | C053 (antibody, V domains shown) VH: EVQLVESGGGLIQPGGSLRLSCAASGFIVSNNYMSWVRQAPGKGLDWVSVIYSGGTTYYADSVKGRFTISRDNSKNTLYLQMNSLRAEDTAVYYCAREGDVEGYHDSWSGYSRDRYYFDYWGQGTLVTVSS VL: QSALTQPASVSGSPGQSITISCTGSSSDVGGYNFVSWYQQHPGRAPKLMIYDVSNRPSGVSNRFSGSKSGNTASLTISGLQVEDEADYYCSSYTNNNTRVFGTGTKVTVL | 1.53
6 | C055 (antibody, V domains shown) VH: EVQLVESGGGLVQPGGSLRLSCAASGFSVSTKYMTWVRQAPGKGLEWVSVLYSGRTDYYADSVKGRFTISRDSSKNILYLQMSSLRVEDTGFYYCARDSSEVRDHPGHPGRSVGAFDIWSQGTMVTVSS VL: QSALTQPASVSGSPGQSIAISCTGTSNDVGSYTLVSWYQQYPGKAPKLLIFEDSQRSSGISNRFSGSKSGNTASLTISGLRGEDEADYYCCSYAGSHTFVFGGGTKVTVL | 1.25
7 | C057 (antibody, V domains shown) VH: QVQLVQSGAEVKRPGASVKLSCKASGYIFTDYSIHWVRQAPGQGLEWMGWVNPNSGGGNSAQKFMDWVTMARDTSITTVYMELSRLRSDDTAVYYCARGPLFHKLVYDSWSGYHDGFDIWGQGTMVTVSS VL: QSALTQPASVSGSPGQSITISCTGTSSDVGAYKFVSWYQQHPGKAPQLIIYEVSNRPSGVSNRFSGSKSGNTASLTISGLQAEDEADYYCSSYTNASTWVFGGGTELTVL | 2.31
8 | C058 (antibody, V domains shown) VH: QVQLVQSGAEVKKPGASVKVSCKASGYIFTDYSMHWVRQAPGQGLEWIGWVNPNSGGTNYAQKFQGWVTMARDTSITTVYMELSRLKSDDTAVYFCARGPLFHRLVYDFWSGYHDGFDMWGQGTMVTVSS VL: QSALTQPASVSGSPGQSITISCTGTSSDVGGYKFVSWYQQHPGKAPKLMIYEVSNRPSGVSNRFSGSKSGNTASLTISGLQAEDEADYYCNSYTSSSTWVFGGGTKLTVL | 2.28
9 | C059 (antibody, V domains shown) VH: QVQLVQSGAEVKKPGASIKVSCKASGYTFTDYSMHWVRQAPGQGLEWMGWINPNSGGTKYAQKFQGWVTMTRDMSITTVYMELTRLRSDATAVFYCARGPLFHKLVYDSWTGYHDGFDIWGQGTMVTVSS VL: QSALTQPASVSGSPGQSITISCTGTSSDVGGYNYVSWYQHYPGKAPKLMIYEVTHRPSGVSNRFSGSKSGNTASLTISGLQAEDEADYYCSSSTNSSTWVFGGGTKMTVL | 1.88
10 | C060 (antibody, V domains shown) VH: EVQLVESGGGLVQPGGSQRLSCAASGFTVSSNYMSWIRQAPGKGLEWVSVIYSGGSAYYVDSVKGRFTISRDNSKNTLYLQMNSLRPEDTAVYYCARIANYMDVWGKGTTVTVSS VL: EIVMTQSPATLSVSPGERATLSCRASQSVSSHLAWYQQKPGQAPRLLIYGASTRATGIPTRFSGSGSGTEFTLTISSLQSEDFAVYYCQQYNNWPPLTFGGGTKVEIK | 43.5
11 | C062 (antibody, V domains shown) VH: EVQLVESGGGLVKPGGSLRLTCAASGFTFSTYSMNWVRQAPGKGLEWVSSISSSSSYIYYADSVKGRFTISRDNAKNSLYLQMNSLRAEDTAVYYCARERGYYGGKTPPFLGGQGTLVTVSS VL: NFMLTQPHSVSESPGKTVTISCTGSSGSIASNYVQWYQQRPGSAPTTVIYEDNQRPSGVPDRFSGSIDSSSNSASLTISGLKTEDEADYYCQSYDSSNYWVFGGGTKLTVL | 4.69
12 | C063 (antibody, V domains shown) VH: EVQLVQSGAEVKKPGDSLKISCKASGYSFTRYWIGWVRQMPGKGLDWMGIIYPGDSDTRYSSSFQGQVTISADKSISTAYLQWSSLKASDTSLYYCVRRASSTNFEFWGQGTLVTVSS VL: SYELTQPPSVSVAPGQTATITCGGNNIGSKTVHWYQQKPGQAPVVVVYDDSDRPSGIPERFSGSKSGSTATLTITRVEAGDEADYYCQVWDSTSDHYVFGTGTKVAVI | 414
13 | C064 (antibody, V domains shown) VH: EVQLLESGGDLVQPGGSLRLSCAASGFTFSNYAMSWVRQAPGKGLEWVSAISGSGGNTYYADSVKGRFTISRDNSKNTLYLQMNSLRAEDTAVYYCAKAVHYGGNSDRRFSEPSAPFDYWGQGTLVTVSS VL: QSALTQPASVSGSPGQSITISCTGTSSDVGSYNLVSWYQQHPGKAPKLMIYEGSKRPSGVSNRFSGSKSGNTASLTISGLQAEDEADYYCCSYAGSSTPYVFGTGTKVTVL | 363
14 | C065 (antibody, V domains shown) VH: QVQLQESGPGLVKPSQTLSLTCTVSGGSISSSNYYWSWIRQHPGKGLEWIGYIDYSGGTYYNPSLKSRVTISVDTSKNQFSLKLSSVTAADTAVYYCARVSTTVTTYLVGGFDIWGQGTMVTVSS VL: IRMTQSPSSLSASVGDRVTITCQASQDITNYLNWYQQKPGKAPKLLLYDASNLETGVPSRFSGSGSGTDFTFTISSLQPEDIATYYCQQYDNLPWTFGQGTKVEIK | 29.1
15 | C066 (antibody, V domains shown) VH: EVQLVESGGGLIQPGGSLRLSCAASGLLVSRNYMTWVRQAPGKGLEWVSVIYSGGSTFYADSVRGRFTISRDNSKNTLYLQMDSLRAEDTAVYYCARDVGDYYGMDVWGQGTTVTVSS VL: DIQLTQSPAFLSASVGDRVTITCRASQGMSNYLAWYQQKPGKAPNLLIYTASTLQSGVPSRFSGSGSGTEFTLTISSLQPEDFATYYCQLLNSYPQLTFGGGTKVEIK | 4.2
16 | C067 (antibody, V domains shown) VH: VQLVESGGGVVQPGRSLRLSCAASGFSFRIFGMNWVRQAPGKGLDWVAGISHDGSDKYFADSVKGRFTISRDNSKNTLYLQMNSLRADDTAVYYCARDMEVDYYDRSGHYHVFHAFDIWGQGTMVTVSS VL: DIVMTQSPDSLAVSLGARATINCKSSQSILYSSDNKSSLAWYQQKPGHPPKLLIYWASTRESGVPDRFSGSESGTDFTLTISNLQGEDVAVYYCQQYYSIPRSFGQGTKLEIK | 6.98
17 | C068 (antibody, V domains shown) VH: QVQLVESGGGVVQPGRSLRLSCVASGFSFSTYGMHWVRQAPGKGLEWVALIWSDGSNKYYGDAAEGRFTISRDNSNNTLYLQMNNLRAEDTALYYCARDHSSSSFVYYYYMDVWGKGTTVTVSS VL: QSALTQPRSVSGSPGQSVTISCTGTSSDIGGYNYVSWYQQHPDKAPKFIIFDVSKRPSGVPDRFSGSKSGNTASLTISGLQAEDEADYYCCSYAGPYPYVFGTGTKVTVL | 5.46
18 | C069 (antibody, V domains shown) VH: QVQLVQSGAEVKKPGSSVNVSCKASGGTFSTYAIHWVRQAPGQGLEWMGGIIPLFHTANYAQKFQGRVTITADESTSTAYMELSSLRSEDTAMYYCAINTQWDLVPRWGRGTLVTVSS VL: EIVLTQSPGTLSLAPGERATLSCRASQSVNSNYLAWYQQKPGQAPRLLIYGASSRATGIPDRFSGSGSGTDFTLTISRLEPEDFAVYYCQQYGFSLYSFGQGTKLEIK | 381
19 | C081 (antibody, V domains shown) VH: EVQLVESGGGLVKPGGSLRLSCAASGFTFSSAWMSWVRQAPGKGLEWVGRIKTKTDGGTKDYAAPVKGRFTISRDDSKNTLYLQMNSLKTEDTAVYYCTTTNDYGDYSPAYWGQGTLVTVSS VL: not shown | 12.5
20 | C083 (antibody, V domains shown) VH: EVQLVESGGGLVKPGGSLRLSCAASGFTFSSYSMNWVRQAPGKGLEWVSSISSSTSYIYYADSVKGRFTISRDNAKNSLYLQMNSLRAEDTAVYYCARERYGDNWGQGTLVTVSS VL: QLVLTQSPSASASLGASVKLTCTLSSGHSSYAIAWHQQQPEKGPRYLMSLNSDGSHSKGDGIPDRFSGSSSGAERYLTISSLQSEDEADYYCQTWGPWVFGGGTKLTVL | 25.1
21 | C085 (antibody, V domains shown) VH: QVQLQESGPGLVKPSETLSLTCTVSGDSMSSYFWTWIRQPPGKGLECIGYFYPSGSTNYNPSLKSRVTISIDTSKNQFSLKLSSVTAADTAVYYCARLKQQLVGFGWFDPWGQGTLVTVSS VL: QSVLTQPPSVSGAPGQRVTISCTGSSSNIGADYDVHWYQQFPGTAPKVLIYANTNRPSGVPERFSGSKSGTSASLAITGLQAEDEADYYCQSYDHSLNWVFGGGTKLTVL | 2.38
22 | C086 (antibody, V domains shown) VH: QVQLQESGPGLVKPSETLSLTCTVSGDSISTYFWAWIRQPPGRGLECIGSFFPSGSTYYNPSLKSRVTISVDTSKNQFSLKLNSVTAADTAVYYCARLKQQLVGFGWFDPWGQGSLVTVSS VL: QSVLTQPPSVSGAPGQRVTISCTGSISNIGADYEVHWYVQFPGTAPKVLIYANTNRPSGVPERFSASKSGTSASLAITGLQAEDEADYYCQSYDHRLHWVFGGGTKLTVL | 3.01
